Here are results for five molecules from US20180208675A1 (Novo Nordisk, published 2018).

In assay [1] the target is T1, human TFPI alpha (full-length TFPIα) (human, UniProt P10646 29-304).
T1 construct: Analyte in SPR and added to plasma (2 or 20 nM) in thrombin generation assays; also called human TFPIα
Briefly: SPR (Biacore T200), Fab-Fab conjugate captured on Human Fab Binder, TFPIα in solution, 1:1 fit. Background: SPR reads the build-up and loss of mass on a sensor chip optically.
From the text: (§1) Binding interaction analysis was obtained by Surface Plasmon Resonance in a Biacore T200 instrument. Human Fab Binder (Human Fab Capture Kit, GE Healthcare) was immobilized to a series S CM4 sensor chip (GE Healthcare) in flow-cells 1-4 at 10000 response units (RU) using the amine coupling protocol available within the Biacore T-200 control software (GE Healthcare) and the reagents provided with the Amine Coupling Kit (GE Healthcare).The relevant Fab fragment or Fab-Fab conjugate was captured in flow-cell 2, 3 or 4 at a fixed concentration. Different concentrations of TFPI were tested by diluting TFPI in the running buffer (10 mM Hepes, pH 7.4, 300 mM NaCl, 5 mM CaCl₂, 0.05% Surfactant P20, 1 mg/ml BSA). Each sample was assayed using 300 seconds of contact time followed by 600 seconds of dissociation time at 50 μl/min flow rate. A buffer blank was also assayed. The sensor surface was regenerated with 10 mM Glycine pH 2.1 with two cycles each of 30 seconds at 50 μl/min flow rate.
(§2) Biacore T200 Evaluation software was used to analyse the data. Determination of binding constants (kₒₙ, koff, KD) was obtained assuming a 1:1 interaction of TFPI and the Fab variant or Fab-Fab conjugate of interest.

The target in assay [2] is T1, human TFPI alpha (full-length TFPIα). Briefly: SPR (Biacore T200), Fab captured on Human Fab Binder, TFPIα in solution, 1:1 fit.
From the text: as §1, §2

As a reminder, the Kd is the constant that tells how readily two partners part at equilibrium. As usually defined, the koff is a measure of how fast the partners let go of each other. The term kon denotes the rate constant with which the complex forms.

B1: Fab 0094-Fab 0089 conjugate 9004 (bispecific antibody)
heavy 1: EVQLVESGGGLVKPGGSLRLSCAASGFTFSNYAMSWVRQAPGKGLEWVSTISRSGSYSYYPDSVKGRFTISRDNAKNSLYLQMNSLRAEDTAVYYCARLGGYDEGDAMDSWGQGTTVTVSSASTKGPSVFPLAPCSRSTSESTAALGCLVKDYFPEPVTVSWNSGALTSGVHTFPAVLQSSGLYSLSSVVTVPSSSLGTKTYTCNVDHKPSNTKVDKRVESKYGPPC
light 1: DIVMTQTPLSLSVTPGQPASISCKSSQSLLESDGKTYLNWYLQKPGQSPQLLIYLVSILDSGVPDRFSGSGSGTDFTLKISRVEAEDVGVYYCLQATHFPQTFGGGTKVEIKRTVAAPSVFIFPPSDEQLKSGTASVVCLLNNFYPREAKVQWKVDNALQSGNSQESVTEQDSKDSTYSLSSTLTLSKADYEKHKVYACEVTHQGLSSPVTKSFNRGEC
heavy 2: QVQLQQSGAELVKPGASVKLSCKASGYTFISYYMYWVKQRPGQGLEWIGEINPSNGDTNLNEKFKSKATLTVDKSSSTVYMQLSSLTSEDSAVYYCTRWDRFDGFVYWGQGTLVTVSAASTKGPSVFPLAPCSRSTSESTAALGCLVKDYFPEPVTVSWNSGALTSGVHTFPAVLQSSGLYSLSSVVTVPSSSLGTKTYTCNVDHKPSNTKVDKRVESKYGPPC
light 2: ETTVTQSPASLSMAIGGKVTIRCIISTNIDDDINWYQQKPGEPPKLLISEGNTLRPGVPSRFSSSGYGTDFVFTIENMLSEDVADYYCLQSDDLPYTFGGGTKLEIKRTVAAPSVFIFPPSDEQLKSGTASVVCLLNNFYPREAKVQWKVDNALQSGNSQESVTEQDSKDSTYSLSSTLTLSKADYEKHKVYACEVTHQGLSSPVTKSFNRGEC
modifications: C-terminal cysteine coupled through the bis-maleimide linker to the Fab 0094 heavy chain; C-terminal cysteine coupled through 1,16-N,N'-bis(maleimido)-4,13-diaza-7,10-dioxa-3,14-dioxohexadecane to the C-terminal cysteine of the Fab 0089 heavy chain
notes: KPI-2/KPI-3
On to B1, for which, in assay [1], the Kd worked out at 0.036 nM, the koff was found to be 0.00022 s⁻¹ and the kon was 6.2e+06 M⁻¹ s⁻¹.

B2: Fab 0095-Fab 0089 conjugate 9005 (bispecific antibody)
heavy 1: EVQLVESGGGLVKPGGSLRLSCAASGFTFSNYAMSWVRQAPGKGLEWVSTISRSGSYSYYADSVKGRFTISRDNAKNSLYLQMNSLRAEDTAVYYCARLGGYDEGDAMDSWGQGTTVTVSSASTKGPSVFPLAPCSRSTSESTAALGCLVKDYFPEPVTVSWNSGALTSGVHTFPAVLQSSGLYSLSSVVTVPSSSLGTKTYTCNVDHKPSNTKVDKRVESKYGPPC
light 1: DIVMTQTPLSLSVTPGQPASISCKSSQSLLESDGKTYLNWLLQRPGESPKLLIYLVSILDSGVPDRFSGSGSGTDFTLKISRVEAEDVGVYYCLQATHFPQTFGGGTKVEIKRTVAAPSVFIFPPSDEQLKSGTASVVCLLNNFYPREAKVQWKVDNALQSGNSQESVTEQDSKDSTYSLSSTLTLSKADYEKHKVYACEVTHQGLSSPVTKSFNRGEC
heavy 2: QVQLQQSGAELVKPGASVKLSCKASGYTFISYYMYWVKQRPGQGLEWIGEINPSNGDTNLNEKFKSKATLTVDKSSSTVYMQLSSLTSEDSAVYYCTRWDRFDGFVYWGQGTLVTVSAASTKGPSVFPLAPCSRSTSESTAALGCLVKDYFPEPVTVSWNSGALTSGVHTFPAVLQSSGLYSLSSVVTVPSSSLGTKTYTCNVDHKPSNTKVDKRVESKYGPPC
light 2: ETTVTQSPASLSMAIGGKVTIRCIISTNIDDDINWYQQKPGEPPKLLISEGNTLRPGVPSRFSSSGYGTDFVFTIENMLSEDVADYYCLQSDDLPYTFGGGTKLEIKRTVAAPSVFIFPPSDEQLKSGTASVVCLLNNFYPREAKVQWKVDNALQSGNSQESVTEQDSKDSTYSLSSTLTLSKADYEKHKVYACEVTHQGLSSPVTKSFNRGEC
modifications: C-terminal cysteine coupled through the bis-maleimide linker to the Fab 0095 heavy chain; C-terminal cysteine coupled through 1,16-N,N'-bis(maleimido)-4,13-diaza-7,10-dioxa-3,14-dioxohexadecane to the C-terminal cysteine of the Fab 0089 heavy chain
notes: KPI-2/KPI-3; also called Fab 0095-Fab 0089 (9005)
In assay [1], B2 displayed a Kd of 0.038 nM, a dissociation rate constant (koff) of 0.00023 s⁻¹ and an on-rate (kon) of 6.1e+06 M⁻¹ s⁻¹.

B3: Fab 0088-Fab 0089 conjugate 9002 (bispecific antibody)
heavy 1: EVQLVESGGGLVKPGGSLRLSCAASGFTFSNYAMSWVRQTPEKRLEWVATISRSGSYSYFPDSVQGRFTISRDNAKNSLYLQMNSLRAEDTAVYYCARLGGYDEGDAMDSWGQGTTVTVSSASTKGPSVFPLAPCSRSTSESTAALGCLVKDYFPEPVTVSWNSGALTSGVHTFPAVLQSSGLYSLSSVVTVPSSSLGTKTYTCNVDHKPSNTKVDKRVESKYGPPC
light 1: DIVMTQTPLSLSVTPGQPASISCKSSQSLLESDGKTYLNWYLQKPGQSPQLLIYLVSILDSGVPDRFSGSGSGTDFTLKISRVEAEDVGVYYCLQATHFPQTFGGGTKVEIKRTVAAPSVFIFPPSDEQLKSGTASVVCLLNNFYPREAKVQWKVDNALQSGNSQESVTEQDSKDSTYSLSSTLTLSKADYEKHKVYACEVTHQGLSSPVTKSFNRGEC
heavy 2: QVQLQQSGAELVKPGASVKLSCKASGYTFISYYMYWVKQRPGQGLEWIGEINPSNGDTNLNEKFKSKATLTVDKSSSTVYMQLSSLTSEDSAVYYCTRWDRFDGFVYWGQGTLVTVSAASTKGPSVFPLAPCSRSTSESTAALGCLVKDYFPEPVTVSWNSGALTSGVHTFPAVLQSSGLYSLSSVVTVPSSSLGTKTYTCNVDHKPSNTKVDKRVESKYGPPC
light 2: ETTVTQSPASLSMAIGGKVTIRCIISTNIDDDINWYQQKPGEPPKLLISEGNTLRPGVPSRFSSSGYGTDFVFTIENMLSEDVADYYCLQSDDLPYTFGGGTKLEIKRTVAAPSVFIFPPSDEQLKSGTASVVCLLNNFYPREAKVQWKVDNALQSGNSQESVTEQDSKDSTYSLSSTLTLSKADYEKHKVYACEVTHQGLSSPVTKSFNRGEC
modifications: C-terminal cysteine coupled through the bis-maleimide linker to the Fab 0088 heavy chain; C-terminal cysteine coupled through 1,16-N,N'-bis(maleimido)-4,13-diaza-7,10-dioxa-3,14-dioxohexadecane to the C-terminal cysteine of the Fab 0089 heavy chain
notes: KPI-2/KPI-3
In assay [1], B3 had a Kd of 0.0053 nM, a koff of 3.8e-05 s⁻¹ and a kon of 7.1e+06 M⁻¹ s⁻¹.

B4: Fab 0313-Fab 0089 conjugate 9031 (bispecific antibody)
heavy 1: EVQLVESGGGLVKPGGSLRLSCAASGFTFSNYAMSWVRQAPGKGLEWVSTISRSGSYSYYADSVKGRFTISRDNAKNSLYLQMNSLRAEDTAVYYCARLGGYDEGDAMDSWGQGTTVTVSSASTKGPSVFPLAPCSRSTSESTAALGCLVKDYFPEPVTVSWNSGALTSGVHTFPAVLQSSGLYSLSSVVTVPSSSLGTKTYTCNVDHKPSNTKVDKRVESKYGPPC
light 1: DIVMTQTPLSLSVTPGQPASISCKSSQSLLESDGKTYLNWYLQKPGQSPQLLIYLVSILDSGVPDRFSGSGSGTDFTLKISRVEAEDVGVYYCLQATHFPQTFGGGTKVEIKRTVAAPSVFIFPPSDEQLKSGTASVVCLLNNFYPREAKVQWKVDNALQSGNSQESVTEQDSKDSTYSLSSTLTLSKADYEKHKVYACEVTHQGLSSPVTKSFNRGEC
heavy 2: QVQLQQSGAELVKPGASVKLSCKASGYTFISYYMYWVKQRPGQGLEWIGEINPSNGDTNLNEKFKSKATLTVDKSSSTVYMQLSSLTSEDSAVYYCTRWDRFDGFVYWGQGTLVTVSAASTKGPSVFPLAPCSRSTSESTAALGCLVKDYFPEPVTVSWNSGALTSGVHTFPAVLQSSGLYSLSSVVTVPSSSLGTKTYTCNVDHKPSNTKVDKRVESKYGPPC
light 2: ETTVTQSPASLSMAIGGKVTIRCIISTNIDDDINWYQQKPGEPPKLLISEGNTLRPGVPSRFSSSGYGTDFVFTIENMLSEDVADYYCLQSDDLPYTFGGGTKLEIKRTVAAPSVFIFPPSDEQLKSGTASVVCLLNNFYPREAKVQWKVDNALQSGNSQESVTEQDSKDSTYSLSSTLTLSKADYEKHKVYACEVTHQGLSSPVTKSFNRGEC
modifications: C-terminal cysteine coupled through the bis(acetyl)ethylene diamine linker to the Fab 0313 heavy chain; C-terminal cysteine coupled through bis(bromoacetyl)ethylene diamine to the C-terminal cysteine of the Fab 0089 heavy chain
notes: KPI-2/KPI-3; also called Fab 0313-FAb 0089 (9031)
For B4, in assay [1], binding was characterised by a dissociation constant (Kd) of 0.17 nM, the off-rate constant (koff) amounted to 0.0067 s⁻¹ and the on-rate (kon) is 4e+07 M⁻¹ s⁻¹.

B5: Fab 2F22 (Fab, V domains shown)
VH: QVQLKQSGPGLVQPSQSLSITCTVSGFSLTNYGVHWVRQSPGKGLEWLAVIWRGGSIDYNAAFMSRLSITKDNSKSQVFFKMNSLQADDTAIYYCAKNSHGNYVGYAMDYWGQGTSVTVSS
VL: GIVMTQSQKFMSTTVGDRVSITCKASQSVGPAVAWYQQKPGQSPKLLIYSASNRYTGVPDRFTGSGSGADFTLTISNLHSEDLADYFCQQYTSYPTFGGGTKLEIKR
notes: KPI-1 specific; HC truncated after the hinge cysteine; also called Fab fragment 2F22; extended Fab 2F22 (Fab for chemical coupling)
Take B5: in assay [2], the Kd amounted to 1.7 nM. In other words, the single-digit nanomolar range.
